We go through one substance from publication PMC6739165.

The assay addresses mCerulean-Hsp70 (UniProt P0DMV8). Description: FRET or BRET. A general note: BRET reads energy transfer from a luciferase to a nearby fluorophore.
Sequence of UniProt P0DMV8 (P0DMV8 whole entry): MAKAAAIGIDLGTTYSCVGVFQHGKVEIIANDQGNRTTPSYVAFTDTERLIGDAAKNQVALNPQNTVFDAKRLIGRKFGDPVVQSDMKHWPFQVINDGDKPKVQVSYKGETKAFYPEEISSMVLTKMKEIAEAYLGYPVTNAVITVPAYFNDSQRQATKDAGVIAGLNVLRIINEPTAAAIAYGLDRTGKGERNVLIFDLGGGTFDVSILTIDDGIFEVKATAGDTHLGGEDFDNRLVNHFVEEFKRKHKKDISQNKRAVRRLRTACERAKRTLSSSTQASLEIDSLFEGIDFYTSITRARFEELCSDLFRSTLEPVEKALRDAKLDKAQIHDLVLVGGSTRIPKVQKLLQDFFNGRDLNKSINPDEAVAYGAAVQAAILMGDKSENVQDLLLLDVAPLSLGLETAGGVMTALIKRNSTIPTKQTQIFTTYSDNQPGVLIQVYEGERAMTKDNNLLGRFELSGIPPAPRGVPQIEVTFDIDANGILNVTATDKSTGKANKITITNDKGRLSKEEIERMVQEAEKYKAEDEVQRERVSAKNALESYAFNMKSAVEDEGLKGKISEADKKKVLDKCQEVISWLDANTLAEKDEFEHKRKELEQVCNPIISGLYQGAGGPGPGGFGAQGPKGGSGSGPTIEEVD

In turn, “mVenus-OLA1 (from UniProt Q9NTK5 1-396) (natural protein)” returned a percent FRET efficiency of 33%.
